Assay: soluble on expression in E. coli; label from the status in PepcDB or PDB records

Sequence | soluble on expression in E. coli
MIIILRYNKQVFYKYKGDSVMRNRTSVMRKRQMQEVTAKRTKLGKIAMTQKLEATEKQFIVTQGQPCQTQLAEGKFLSYQYNDQIFVHGGRCIELVDSNIVSTAHASLLITILLEGKLSFGYDDLQFDLDASDTPQGVVVNLIHPANFRRSLIENNQINKINILVKPQWLEYRSEESCCSTAFFETHQAFYHLELNQALTELATELTNRDTPHRFQDKLEIESLIYQILFHATQQMPQDFCPQNTNSYRDK | not soluble
TKDFSWTTSLNLSHNKNKIVKLADLPEFIDGNYIRKEGCSYATIYLREYAGVDPNDGRPMYYDNKEDENGNRSRNIVYDPNDADRVELKDIYPKLTGGLMNTFNYKFIDLSFNLSFHLGGYSYDGAMYALQDDGYTAQYNKSTELRRRWKQPGDITDVPRYVYGQEYGGWWNSSRGVHSTDHLRLKSLIVGVSAPQSWLRTIGINSARIYFSGTNLLTWAAYDQYDPELNGIVSYFTPPLKTFAFGLELKF | not soluble
MRFSNDHPFNQMRLKLTTELLLDLGSLKPEHIITPRIATDEELSLIHSYDYIQAIRRASHGILNLQEAKKYGLDGDDTLQFRRMHQHSARIVGGALNLADAIMDKSVKNGCHLGGGLHHSLPGRANGFCIYNDVAITIAYLIKHYNQRVLCIDTDAHHGDGTQWSFYTEDQALIYSIHETGKFLFPGSGHYTERGNEQGFGYTVNIPLEPYTEDSSYLEVFKQTIEPIIASFKPDIIVSVHGVDVHYLDPLTHMSCTLNTLYQIPYIIKSLADTYTNGKVMMFGGGGYNIWKVVPRAWSHVFLALIEAPPPLEHHHHHH | soluble
MICFRTAFILILGVVIGTTAKRHNVRRHVNGKWTDKHCEEPPSLKEDLATWMQISMSGQFDDTALEEWSTNGKEPEICEKSPKADGVTTIMERALCPWDSRVNYQESREPKLIAESVCLCRKSRGSTGAFCMPIVRKVPILRRVSCDRSTGLWNYVRSTELITVGCHSVLPRTQRAARLAHLSSSRIIV | not soluble
MFQIGEALMGQGSELAHVDLMIGDKGGPVGQAFANGLTQLSAGHTPLLSVIRPNLPPKPSTLIIPKVTVKNMDQAARIFGPAQSAVAKAVADSVEEGVIPKDQVEDLVIVASVFIHPEAQDYNKIYRYNYGATKLAIKRALEGFPDIDTVLEESNKSTHAIMGFKVTRLWDPPYLQIAFDNPNLEFVLSAISEIPKSDHVIIEAGTPLIKRYGTDVISKIRQVRPDAFIVADLKTLDTGNLEARMVADAAGDAIVVSALAPISTIDKLIEEAHKTGIYAVMDTLNQQDPISVLKQLKVMPDVIELHRGIDIEGTEHAWGNIGEIKKIAPKALVAVAGGVRLDKVPVALSQGADILVVGRAITNAKDVREMAEQFINSLNKPEIDQFRVMTDF | not soluble
MNASSRTKPAIDLNKVPPIDHHRTAVTFNCLIMKMTEMLNNFGNKMEDILEKAEQSLDTADRKLRLMESKLAGMSLEDKSTTATPSSAPEIDEIHESNPSSSQIVEETVEEKPEEHTTTVLIKDDPAYSKYFKMLKLGVLEAGVIQKMKSEGVDPSILKRGDEPSRPQAQTSRNYESSGESTASFSDSD | not soluble
MIERLLEIKKIRADRADKAVQRQEYRVANVAAELQKAERSVADYHVWRQEEEERRFAKAKQQTVLLKELETLRQEIALLREREAELKQRVAEVKVTLEQERTLLKQKQQEALQAHKTKEKFVQLQQQEIAEQSRQQQYQEELEQEEFRTVDIIAAALEHHHHHH | soluble
MRLLPVTLLLGAVIFVSTKSTCRTRTKPPSTVPMNEVTEAVTTKKASNVTVKPTTCEASWTRVERSIGGWCLKVYNGFVHQDQASQACIRIGAELSGSESSAERAVIARLGKERMLAASDYKFGTIRVGIARPTTTRAWALTDGNNDGGQQGIQWSKGEPQLGPTSGYSHNCALMWIWASTGTSPYEHGKYFHKFVHLLGRTCTEDLFVESVLLDF | not soluble
MSLENKENLVVIDLAIAEDSIQKKNIVYDKNGQNHFDVISAFIKSIRGSDPDATLYWLANMVEAGEDPNFIFRRLLISACEDIGLADPNAIVVVQSCCDAFDRVGFPEGLFFLSQASLYLAISPKSNSTKSIFKAMEAIKATNVSLVPNHLKNNASNYLNPHNYQGKWLQQEYLPTDLQGIKFWKPKDSGWEKNKYEDLPKKQKSEGHHHHHH | soluble
GPGSMSVSATPYKRQDAITAKTVLLGESAVGKSSIALRFARNEFSSNQETTIGAAFLSRSVTVSATSQSGGGGAVANAASGTIKFEIWDTAGQERYRSLAPIYYRGACGALVVYDITSAESLKKAQMWMRELRANADPTLLIILVGNKKDMESLRQVSYEDGAAVAQEEDVNGFFEVSAKENVNVEEVFAKLARLLLEHGLGANSGPGSLSGPRGAQRLEPPTRQQKKEGGCAC | not soluble
MSNTKTASTGFAELLKDRREQVKMDHAALASLLGETPETVAAWENGEGGELTLTQLGRIAHVLGTSIGALTPPAGNDLDDGVIIQMPDERPILKGVRDNVDYYVYNCLVRTKRAPSLVPLVVDVLTDNPDDAKFNSGHAGNEFLFVLEGEIHMKWGDKENPKEALLPTGASMFVEEHVPHAFTAAKGTGSAKLIAVNF | soluble
MGSDKIHHHHHHMGEQQLDCALDLMRRLPPQHCDKNLTDLIDLCPHLVDDLLSTIDQPLKIAADRETGKQYLLCDYNRDGDSYRSPWSNTYDPPLEDGQLPSEKRRKMEIEANAAFESYRDLYFEGGVSSVYFWDLDNGGFAGIVLIKKEGDGAKNITGCWDSIHVIEITERARQAHYKLTSTIMLWLQTNKSSSGVMNLGGSLTRQHEMDAPINDQNTHLANMGRMIEDQESKMRLTINEIYFGKTKKVMSDLRSTEKQSELEKQDEIVRELNNAMANRGN | not soluble
MINLKGITKSFQNGAESIQILHGIDVTLNQGEFTSIMGPSGSGKSTLMNIIGCLDKPTTGTYELAGQNISNMSKTELAHVRNKEIGFVFQNFMLLPRLSALQNVELPLIYAGVDKKERRERSLAALTKVGLADRATHLPNELSGGQKQRVAVARAIVNNPKFILADEPTGALDTKTSTQIMDLFYELNKQGSTIIMITHDREIGEAAARQIVIRDGNIVQDWRG | not soluble
MEGLLIHAVLRELEKELPAQNLGLAFPEEGTAAILLKGRTGRLFNLVLHYRPPTPSLALEPGRLQGEPKTPFQRQLQARVKGPLVEASQLKLDRVAFFRFAGEKGFVDAPPSVLVLEATGRNANLLLLDEEGRILGVDRVITKEVNRYRELRPGLPYTPPPPYRKLDPRTLAEEDLLPLLGKPLKEVIRHVDGVGQELLRELARRAGLTPETPLDEAGLGRVYRALKTLVEDPSLRTELSEELRRRWAEEEKEALRKPLLEALDREIRTLKARLGDYQEALERLEEAEALRRRADLLLARLKEVPKGAEKVVLEGFDGKPVEIPLDPALSPQENARKLYDRARRLEELAEKALDLIPKTEARIRELEAEKERLRTLDLEGLLALAQRPKGEKGLKVGLRYTSPSGFLVLVGRNAKENDLLTRAAHSEDLWFHAQGVPGSHVILKTEGKNPPLEDLLFAARLAAYHSKARGERQVPVDYTRKKHVWRPRKAAPGQVLYTQAKTLFVEGLLPEPREEA | soluble
MGHHHHHHSHMPFKLFKKLTISSVVTSATVNWATLASRTVFILPKRVLPYLRSVARLTRVVIAMDRYGGLLGGFLRAVPPVQKPLSLTDGNKFREGIMSEVGKYVSTLVDPRNMMLDSFHHLKHNKSLQGSFLVHAGTVSDQEVCGTPMFCYKDGLSNPEIDRLLTPISLTRLTVPNNENSDVFRIGNIIYSEDSGLFDIIPTLRTRLMERNLHEGLVFVGPLIKNINSSFVNKITTAIKGDTVLNESLSHGLVLKLPVEQFMDFETTNTFHYTGRLPMTHRSYIYYALGYVITADGTQSLLQKFFRTPIEGPEFTRLVRDYFAGEIRNFFLGDNDFGQGNFLMFGAVCRCGYFPEDSLLTRTRVSIKGGGLSLIEIPDFTVSRGPWQFI | not soluble
MADETPKVKTEPAAEVKSPLDEVKEIRKEAELTQTGSDEKKTTDPEFITVQDPNGDEPIELPTVDGVVLMTTLQASFPGATGLKYKNPKTGANRAVQVDPSGLKLIAPADGWENKTFFVIVAPQSERVRALSSADATSAKRRKVGSSDDSDSDDGRDGRSGRKRAVERDSQPVDLIVLGVDFKTTDECFQKYFEDIGTVVFCEIKRKSDGNSKGFGFVRMSSVGEQNKVLAIPQHMIDGRRCDVKVPDGRDKQGRPSISRIFVGRLTDKVDEHQLRKVFGDEAKSYIETAVVTDVFIPKPFRGFAFVTLSSAEAAERIVSKGSLTVNGLSVGLSIAQPREENNQSVGPDYGLPAGYRNRRERDRPDRRPIQNEAPLPMPFVRPPQDYSYRQQNSPLERRYWAPGDSRGPGW | not soluble
